Here are results for 23 molecules from patent US20260373285 (published 2026).

T1: human Trop-2 (His) (human, UniProt P09758)
T1 chain: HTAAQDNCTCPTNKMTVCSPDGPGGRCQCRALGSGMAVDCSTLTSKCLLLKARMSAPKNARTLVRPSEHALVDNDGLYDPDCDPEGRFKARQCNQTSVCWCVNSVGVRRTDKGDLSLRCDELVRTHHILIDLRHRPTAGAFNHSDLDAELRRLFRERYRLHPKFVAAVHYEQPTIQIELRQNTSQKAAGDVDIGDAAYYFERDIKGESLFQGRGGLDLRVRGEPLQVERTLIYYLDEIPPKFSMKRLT

B1: Trop-2-YC-82hz-4 (antibody, V domains shown)
VH: EVQVVESGGGLVQPGGSLRLSCAASGYIFSNSGMGWYRQAPGQGLELVAAISSGGTTHYADSVKGRFTISRDNSKNTLYLQMNSLRAEDTAVYYCNGDRYYSGTDVFGSWGQGTLVTVSS
B2: Trop-2-YC-82hz-2 (antibody, V domains shown)
VH: EVQVVESGGGLVQPGGSLRLSCATSGYIFSNSGMGWYRQAPGKQRELVAAISSGGTTHYADSVKGRFTISRDNSKNTVYLQMNSLRAEDTAVYYCNGDRYYSGTDVFGSWGQGTLVTVSS
B3: Trop-2-YC-82hz-3 (antibody, V domains shown)
VH: EVQVVESGGGLVQPGGSLRLSCAASGYIFSNSGMGWYRQAPGKGLELVAAISSGGTTHYAQSVKGRFTISRDNSKNTVYLQMNSLRPEDTAVYYCNGDRYYSGTDVFGSWGQGTLVTVSS
B4: Trop-2-YC-82hz-1 (antibody, V domains shown)
VH: EVQVVESGGGLVQPGGSLRLSCATSGYIFSNSGMGWYRQAPGKGLELVAAISSGGTTHYADSVKGRFTISRDNSKNTVYLQMNSLRAEDTAVYYCNGDRYYSGTDVFGSWGQGTLVTVSS
B5: Trop-2-YC-82hz-5 (antibody, V domains shown)
VH: EVQVVESGGGLVQPGGSLRLSCAASGYIFSNSGMGWYRQAPGQGLELVAAISSGGTTHYAQSVKGRFTISRDNSKNTLYLQMNSLRAEDTAVYYCNGDRYYSGTDVFGSWGQGTLVTVSS
B6: PD-L1-1.168.15-z14-uIgG1K (antibody)
chain 1: not shown
chain 2: DIQMTQSPSFLSASVGDRVTITCKASQNVHTSLAWYQQKPGKSPKALIYLASNRHTGVPSRFSGSGSGTEFTLTISSLQPEDFATYFCLQHWNYPLTFGQGTKLEIKRTVAAPSVFIFPPSDEQLKSGTASVVCLLNNFYPREAKVQWKVDNALQSGNSQESVTEQDSKDSTYSLSSTLTLSKADYEKHKVYACEVTHQGLSSPVTKSFNRGEC
B7: PD-L1-1.168.15-z9-uIgG1K (antibody)
chain 1: not shown
chain 2: DIQLTQSPSFLSASVGDRVTITCKASQNVHTSLAWYQQKPGKSPKALIYLASNRHTGVPSRFSGSGSGTEFTLTISSLQPEDFATYFCLQHWNYPLTFGQGTKLEIKRTVAAPSVFIFPPSDEQLKSGTASVVCLLNNFYPREAKVQWKVDNALQSGNSQESVTEQDSKDSTYSLSSTLTLSKADYEKHKVYACEVTHQGLSSPVTKSFNRGEC
B8: PD-L1-1.168.15-z10-uIgG1K (antibody)
chain 1: not shown
chain 2: DIQMTQSPSFLSASVGDRVTITCKASQNVHTSLAWYQQKPGKSPKALIYLASNRHTGVPSRFSGSGSGTEFTLTISSLQPEDFATYYCLQHWNYPLTFGQGTKLEIKRTVAAPSVFIFPPSDEQLKSGTASVVCLLNNFYPREAKVQWKVDNALQSGNSQESVTEQDSKDSTYSLSSTLTLSKADYEKHKVYACEVTHQGLSSPVTKSFNRGEC
B9: PD-L1-1.168.15-z15-uIgG1K (antibody)
chain 1: not shown
chain 2: DIQMTQSPSFLSASVGDRVTITCKASQNVHTSLAWYQQKPGKSPKALIYLASNRHTGVPSRFSGSGSGTEFTLTISSLQPEDFATYFCLQHWNYPLTFGQGTKLEIKRTVAAPSVFIFPPSDEQLKSGTASVVCLLNNFYPREAKVQWKVDNALQSGNSQESVTEQDSKDSTYSLSSTLTLSKADYEKHKVYACEVTHQGLSSPVTKSFNRGEC
B10: PD-L1-1.168.15-z12-uIgG1K (antibody)
chain 1: not shown
chain 2: DIQMTQSPSFLSASVGDRVTITCKASQNVHTSLAWYQQKPGKSPKALIYLASNRHTGVPSRFSGSGSGTEFTLTISSLQPEDFATYYCLQHWNYPLTFGQGTKLEIKRTVAAPSVFIFPPSDEQLKSGTASVVCLLNNFYPREAKVQWKVDNALQSGNSQESVTEQDSKDSTYSLSSTLTLSKADYEKHKVYACEVTHQGLSSPVTKSFNRGEC
B11: PD-L1-1.168.15-z7-uIgG1K (antibody)
chain 1: not shown
chain 2: DIQLTQSPSFLSASVGDRVTITCKASQNVHTSLAWYQQKPGKSPKALIYLASNRHTGVPSRFSGSGSGTEFTLTISSLQPEDFATYYCLQHWNYPLTFGQGTKLEIKRTVAAPSVFIFPPSDEQLKSGTASVVCLLNNFYPREAKVQWKVDNALQSGNSQESVTEQDSKDSTYSLSSTLTLSKADYEKHKVYACEVTHQGLSSPVTKSFNRGEC
B12: PD-L1-1.168.15-z13-uIgG1K (antibody)
chain 1: not shown
chain 2: DIQLTQSPSFLSASVGDRVTITCKASQNVHTSLAWYQQKPGKSPKALIYLASNRHTGVPSRFSGSGSGTEFTLTISSLQPEDFATYFCLQHWNYPLTFGQGTKLEIKRTVAAPSVFIFPPSDEQLKSGTASVVCLLNNFYPREAKVQWKVDNALQSGNSQESVTEQDSKDSTYSLSSTLTLSKADYEKHKVYACEVTHQGLSSPVTKSFNRGEC
B13: PD-L1-1.168.15-z8-uIgG1K (antibody)
chain 1: not shown
chain 2: DIQLTQSPSFLSASVGDRVTITCKASQNVHTSLAWYQQKPGKSPKALIYLASNRHTGVPSRFSGSGSGTEFTLTISSLQPEDFATYYCLQHWNYPLTFGQGTKLEIKRTVAAPSVFIFPPSDEQLKSGTASVVCLLNNFYPREAKVQWKVDNALQSGNSQESVTEQDSKDSTYSLSSTLTLSKADYEKHKVYACEVTHQGLSSPVTKSFNRGEC
B14: PD-L1-1.168.15-z1-uIgG1K (antibody, V domains shown)
VH: EVQLVQSGAEVKKPGATVKISCKVSGFNIEDTYIYWVQQAPGKGLEWMGWIDPANYNTKYDPRFQDRVTITADTSTDTAYMELSSLRSEDTAVYYCARGLRLLMDYWGQGTTVTVSS
VL: DIQLTQSPSFLSASVGDRVTITCKASQNVHTSLAWYQQKPGKSPKLLIYLASNRHTGVPSRFSGSGSGTEFTLTISSLQPEDFATYYCLQHWNYPLTFGQGTKLEIKR
B15: PD-L1-1.168.15-z2-uIgG1K (antibody, V domains shown)
VH: EVQLVQSGAEVKKPGATVKISCKVSGFNIEDTYIYWVQQAPGKGLEWMGWIDPANYNTKYDPRFQDRVTITADTSTDTAYMELSSLRSEDTAVYYCARGLRLLMDYWGQGTTVTVSS
VL: DIQLTQSPSFLSASVGDRVTITCKASQNVHTSLAWYQQKPGKAPKALIYLASNRHTGVPSRFSGSGSGTEFTLTISSLQPEDFATYYCLQHWNYPLTFGQGTKLEIKR
B16: PD-L1-1.168.15-z0-uIgG1K (antibody, V domains shown)
VH: EVQLVQSGAEVKKPGATVKISCKVSGFNIEDTYIYWVQQAPGKGLEWMGWIDPANYNTKYDPRFQDRVTITADTSTDTAYMELSSLRSEDTAVYYCARGLRLLMDYWGQGTTVTVSS
VL: DIQLTQSPSFLSASVGDRVTITCKASQNVHTSLAWYQQKPGKAPKLLIYLASNRHTGVPSRFSGSGSGTEFTLTISSLQPEDFATYYCLQHWNYPLTFGQGTKLEIKR
B17: PD-L1-1.168.15-z18-uIgG1K (antibody, V domains shown)
VH: EVQLVQSGAEVKKPGATVKLSCKVSGFNIEDTYIYWVQQAPGKGLEWIGWIDPANYNTKYDPRFQDRVTVTVDTSTNTAYMELSSLRSEDTAVYYCARGLRLLMDYWGQGTTVTVSS
VL: DIQMTQSPSFLSASVGDRVTITCKASQNVHTSLAWYQQKPGKSPKALIYLASNRHTGVPSRFSGSGSGTEFTLTISSLQPEDFATYFCLQHWNYPLTFGQGTKLEIKR
B18: PD-L1-1.168.15-z201-uIgG1K (antibody, V domains shown)
VH: EVQLVQSGAEVKKPGATVKLSCKVSGFNIEDTYIYWVQQAPGKGLEWIGWIDPANYNTKYDPRFQDRVTVTVDTSTNTAYMELSSLRSEDTAVYYCARGLRLLMDYWGQGTTVTVSS
VL: DIVMTQSQKFMSSSVGDRVSITCKASQNVHTSLAWYQQRPGQSPKALIYLASNRHTGVPDRFTGSGSGTDFTLTISNVQSEDLADYFCLQHWNYPLTFGAGTKLELRR
B19: PD-L1-1.168.15-z5-uIgG1K (antibody, V domains shown)
VH: EVQLVQSGAEVKKPGATVKISCKVSGFNIEDTYIYWVQQAPGKGLEWMGWIDPANYNTKYDPRFQDRVTITADTSTDTAYMELSSLRSEDTAVYYCARGLRLLMDYWGQGTTVTVSS
VL: DIQLTQSPSFLSASVGDRVTITCKASQNVHTSLAWYQQKPGKSPKALIYLASNRHTGVPSRFSGSGSGTEFTLTISSLQPEDFATYYCLQHWNYPLTFGQGTKLEIKR
B20: PD-L1-1.168.15-z17-uIgG1K (antibody, V domains shown)
VH: EVQLVQSGAEVKKPGATVKISCKVSGFNIEDTYIYWVQQAPGKGLEWMGWIDPANYNTKYDPRFQDRVTVTVDTSTNTAYMELSSLRSEDTAVYYCARGLRLLMDYWGQGTTVTVSS
VL: DIQMTQSPSFLSASVGDRVTITCKASQNVHTSLAWYQQKPGKSPKALIYLASNRHTGVPSRFSGSGSGTEFTLTISSLQPEDFATYFCLQHWNYPLTFGQGTKLEIKR
B21: PD-L1-1.168.15-z6-uIgG1K (antibody, V domains shown)
VH: EVQLVQSGAEVKKPGATVKISCKVSGFNIEDTYIYWVQQAPGKGLEWMGWIDPANYNTKYDPRFQDRVTITVDTSTDTAYMELSSLRSEDTAVYYCARGLRLLMDYWGQGTTVTVSS
VL: DIQLTQSPSFLSASVGDRVTITCKASQNVHTSLAWYQQKPGKAPKALIYLASNRHTGVPSRFSGSGSGTEFTLTISSLQPEDFATYYCLQHWNYPLTFGQGTKLEIKR
B22: PD-L1-1.168.15-z16-uIgG1K (antibody, V domains shown)
VH: EVQLVQSGAEVKKPGATVKISCKVSGFNIEDTYIYWVQQAPGKGLEWIGWIDPANYNTKYDPRFQDRVTITVDTSTNTAYMELSSLRSEDTAVYYCARGLRLLMDYWGQGTTVTVSS
VL: DIQMTQSPSFLSASVGDRVTITCKASQNVHTSLAWYQQKPGKSPKALIYLASNRHTGVPSRFSGSGSGTEFTLTISSLQPEDFATYFCLQHWNYPLTFGQGTKLEIKR
B23: PD-L1-1.168.15-z202-uIgG1K (antibody, V domains shown)
VH: EVQLQQSGAELVKPGASVKLSCTVSGFNIEDTYIYWVKQRPEQGLEWIGWIDPANYNTKYDPRFQDKATVTVDTSSNTAYMHLSSLTSEDTAVYYCARGLRLLMDYWGQGTSVTVSS
VL: DIQMTQSPSFLSASVGDRVTITCKASQNVHTSLAWYQQKPGKSPKALIYLASNRHTGVPSRFSGSGSGTEFTLTISSLQPEDFATYFCLQHWNYPLTFGQGTKLEIKR

The target in the first assay is T1, human Trop-2 (His). Description: SPR. In general terms: SPR reads the build-up and loss of mass on a sensor chip optically.
For the molecule B1, binding was characterised by a dissociation constant (Kd) of 75.1 nM.

As to B2, binding was put at a Kd of 23.8 nM.

Molecule B3 gave a Kd of 48.2 nM. Compared with the last molecule, the Kd is about 2-fold higher.

With B4, the affinity, expressed as Kd, was 38.1 nM. This Kd and that of the molecule before are within 1.5-fold of each other.

For the molecule B5, the Kd turned out to be 76.5 nM. This Kd lies about 2-fold higher than the previous one.

The target in the next assay is hPD-L1(ECD)-His (human, UniProt Q9NZQ7). In words: SPR supernatant.
Sequence of hPD-L1(ECD)-His (Q9NZQ7 19-238): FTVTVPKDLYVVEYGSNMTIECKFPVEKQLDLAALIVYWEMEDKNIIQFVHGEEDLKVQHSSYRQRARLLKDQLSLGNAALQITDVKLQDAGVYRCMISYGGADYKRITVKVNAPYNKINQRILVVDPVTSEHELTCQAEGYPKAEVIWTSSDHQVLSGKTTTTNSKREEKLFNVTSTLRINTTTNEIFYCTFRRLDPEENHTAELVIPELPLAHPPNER
In turn, B6 displayed a Kd of 1.07 nM.

Turning to B7, the Kd turned out to be 0.915 nM. This Kd and that of the molecule before are within 1.5-fold of each other.

B8 gave a Kd of 0.995 nM.

In turn, B9 returned a Kd of 1.19 nM.

The molecule B10 showed a Kd of 1.13 nM.

Turning to B11, the Kd is 1.01 nM.

On to B12, for which the Kd is 1.04 nM.

Regarding B13, the Kd came out at 1.13 nM.

Consider B14, for which binding was characterised by a dissociation constant (Kd) of 1.09 nM.

B15 yielded a Kd of 1.4 nM.

Molecule B16 displayed a Kd of 1.29 nM.

As for B17, the Kd was 1.86 nM. The Kd values of the last two molecules are within 1.5-fold of each other.

In turn, B18 registered a Kd of 0.844 nM.

With B19, the Kd amounted to 1.24 nM.

In turn, B20 gave a Kd of 1.67 nM.

In turn, B21 came in with a Kd of 0.998 nM.

In turn, B22 returned a Kd of 1 nM.

B23 showed a Kd of 0.501 nM.

The term Kd denotes a measure of binding affinity in units of concentration. A lower Kd goes with higher affinity.
